Source: patent EP4772624A1

Molecular target: human IgG1 antibody against KLH (keyhole limpet hemocyanin)
Assay: cell-based or functional assay

## wild-type IdeZ-mouse Fc fusion protein (from UniProt P01868 103-324)
  cleavage of human IgG1 antibody (SDS-PAGE, reducing; 37 C, 2 h): highest concentration ratio of antibody to fusion protein at which cleavage was confirmed (times (antibody to fusion protein)): 33
